Source: patent publication US20250346878, “EDITING OF DOUBLE-STRANDED DNA WITH RELAXED PAM REQUIREMENT” (WUHAN UNIVERSITY, published 2025)

Legend:
dAtCas9 [1] = molecular target: T1, dAtCas9 (Alicyclobacillus tengchongensis, D8A,H617A,N640A); experiment: EMSA; PAM CTAA; conditions: tags: 6xHis; label: Cy5; NcoI-linearized plasmid
T1 chain: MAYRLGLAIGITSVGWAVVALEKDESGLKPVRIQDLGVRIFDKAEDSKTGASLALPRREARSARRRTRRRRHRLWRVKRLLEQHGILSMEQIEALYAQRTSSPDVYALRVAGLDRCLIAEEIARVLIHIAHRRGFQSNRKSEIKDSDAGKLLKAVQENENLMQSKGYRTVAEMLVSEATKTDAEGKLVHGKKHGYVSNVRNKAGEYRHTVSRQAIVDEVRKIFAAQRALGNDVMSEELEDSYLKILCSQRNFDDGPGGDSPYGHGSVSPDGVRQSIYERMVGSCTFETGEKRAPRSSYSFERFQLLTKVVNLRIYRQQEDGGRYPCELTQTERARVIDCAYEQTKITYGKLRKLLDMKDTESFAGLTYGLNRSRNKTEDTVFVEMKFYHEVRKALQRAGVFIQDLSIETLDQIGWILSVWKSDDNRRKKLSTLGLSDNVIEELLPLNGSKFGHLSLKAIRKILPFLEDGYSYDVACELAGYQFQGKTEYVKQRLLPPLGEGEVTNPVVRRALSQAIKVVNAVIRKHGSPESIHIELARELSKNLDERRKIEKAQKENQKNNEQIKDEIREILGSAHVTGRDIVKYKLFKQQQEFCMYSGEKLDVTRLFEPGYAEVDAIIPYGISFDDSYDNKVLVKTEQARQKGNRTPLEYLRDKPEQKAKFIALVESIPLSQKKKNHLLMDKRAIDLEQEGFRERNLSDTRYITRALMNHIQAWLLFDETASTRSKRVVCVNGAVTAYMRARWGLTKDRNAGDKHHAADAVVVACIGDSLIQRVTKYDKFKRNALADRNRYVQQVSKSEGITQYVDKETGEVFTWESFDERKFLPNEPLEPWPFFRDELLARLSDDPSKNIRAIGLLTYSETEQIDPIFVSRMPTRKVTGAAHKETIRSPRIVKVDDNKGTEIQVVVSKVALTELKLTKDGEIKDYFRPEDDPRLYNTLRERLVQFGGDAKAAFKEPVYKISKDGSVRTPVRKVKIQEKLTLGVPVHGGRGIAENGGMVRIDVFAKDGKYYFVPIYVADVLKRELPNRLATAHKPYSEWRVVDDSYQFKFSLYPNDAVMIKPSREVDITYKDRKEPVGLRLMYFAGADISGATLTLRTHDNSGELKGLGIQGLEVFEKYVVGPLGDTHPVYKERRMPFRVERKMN
Experimental: (§1) A. Schematic diagram of AtCas9 domain structure showing RuvC and HNH nuclease domain mutation site. BH, arginine-rich bridge helix; REC, recognition lobe; L1, linker 1; L2, linker 2; WED, Wedge domain; TOPO, Topoisomerase-homology domain; CTD, C-terminal domain; HNH, HNH domain; D, Aspartic acid; H, Histidine; N, Asparagine; A, Alanine. B. (left) Electrophoretic mobility shift assay (EMSA) were carried out by incubating AtCas9 RNP with 25 nM Cy5-labeled oligonucleotides (50 bp) in buffer16 without Mg²⁺. […] (right) Catalytically dead AtCas9 (dAtCas9, D8A H617A N640A) were used for EMSA assay in the presence of Mg²⁺ C. […] The bulge substrate details are illustrated in FIG. 10B. […] MUT PAM TATA and WT PAM CTAA was used. D. Higher binding affinity of AtCas9 RNPs towards negative supercoiled dsDNA than linear dsDNA. 1 nM cy5-labeled negative supercoil plasmid or NcoI-linearized plasmid containing PAM (CTAA) or mutant PAM (TGAC) motif were incubated with dAtCas9 RNP complex at indicated dosage. ProK, Proteinase K.
(§2) dAtCas9 and sgRNA were mixed at 1:2 molar ratio in 1×buffer16. After incubation at room temperature for 10 minutes, the RNP mixture were diluted to various concentration ranging from […] to 0.6 nM and 4 nM cy5-labeled oligonucleotides was added. Binding reactions were carried out at 55° C. for 30 minutes. Samples were resolved on 4% native TBE-PAGE for oligonucleotides. […]

dAtCas9 [2] = molecular target: T1, dAtCas9; experiment: EMSA; SD 12.05; second measurement, PAM CTAA; guide 21a sgRNA-At; conditions: tags: 6xHis; label: 5' Cy5
Text: (§3) A. Schematic representation of AtCas9 domain structure showing the positions of PAM-interacting (PI) mutations. BH, arginine-rich bridge helix; REC, recognition lobe; L1, L1 linker; L2, L2 linker; WED, Wedge domain; TOPO, Topoisomerase-homology domain; CTD, C-terminal domain; HNH, HNH domain; RuvC, RuvC domain; D, Aspartic acid; I, Isoleucine; S, Serine; G, Glycine; A, Alanine. B. Negative supercoil and linearized DNA of different PAM were cleaved by WT AtCas9 and two PI mutants, m4 and m5. Each PAM variant has at least two distinct spacer sequences for cleavage assays. Use Image Lab software to analyzed the percentage of cutting products and take the average value of each PAM variant for graphing. m4, D1089A; m5, D1089A S1091A G1092A. C. Sequence logo for the AtCas9 PI domain mutant m4 (D1089A) PAM as determined by linearized PAM library substrates cleavage assay. D. EMSA assay were performed with 5′ cy5-labeled oligonucleotides carrying WT PAM (CTAA, left) or MUT PAM (TATA, right), and dAtCas9 or dAtCas9-D1089A RNP complex titrating from 1.2 nM to 2.4 μM. […] E. SpCas9 RNPs hardly bind to mut PAM (GTC) dsDNA compared with wt PAM (AGG) dsDNA. KD±SD for SpCas9 to WT PAM dsDNA, 300±10.57 nM; KD±SD for SpCas9 to MUT PAM dsDNA, ˜2.495e+18 nM.
(§4) dAtCas9 and sgRNA were mixed at 1:2 molar ratio in 1×buffer16. […]

dAtCas9 [3] = molecular target: T1, dAtCas9; experiment: EMSA; SD 10.9; buffer16 with 10 mM Mg2+, 55C; PAM CTAA; conditions: tags: 6xHis; label: 5' Cy5
Experimental: as §1, §2

dAtCas9-D1089A [4] = molecular target: T2, dAtCas9-D1089A (Alicyclobacillus tengchongensis, D8A,H617A,N640A,D1089A); experiment: EMSA; SD 15.39; PAM CTAA; conditions: tags: 6xHis; label: 5' Cy5
T2 chain: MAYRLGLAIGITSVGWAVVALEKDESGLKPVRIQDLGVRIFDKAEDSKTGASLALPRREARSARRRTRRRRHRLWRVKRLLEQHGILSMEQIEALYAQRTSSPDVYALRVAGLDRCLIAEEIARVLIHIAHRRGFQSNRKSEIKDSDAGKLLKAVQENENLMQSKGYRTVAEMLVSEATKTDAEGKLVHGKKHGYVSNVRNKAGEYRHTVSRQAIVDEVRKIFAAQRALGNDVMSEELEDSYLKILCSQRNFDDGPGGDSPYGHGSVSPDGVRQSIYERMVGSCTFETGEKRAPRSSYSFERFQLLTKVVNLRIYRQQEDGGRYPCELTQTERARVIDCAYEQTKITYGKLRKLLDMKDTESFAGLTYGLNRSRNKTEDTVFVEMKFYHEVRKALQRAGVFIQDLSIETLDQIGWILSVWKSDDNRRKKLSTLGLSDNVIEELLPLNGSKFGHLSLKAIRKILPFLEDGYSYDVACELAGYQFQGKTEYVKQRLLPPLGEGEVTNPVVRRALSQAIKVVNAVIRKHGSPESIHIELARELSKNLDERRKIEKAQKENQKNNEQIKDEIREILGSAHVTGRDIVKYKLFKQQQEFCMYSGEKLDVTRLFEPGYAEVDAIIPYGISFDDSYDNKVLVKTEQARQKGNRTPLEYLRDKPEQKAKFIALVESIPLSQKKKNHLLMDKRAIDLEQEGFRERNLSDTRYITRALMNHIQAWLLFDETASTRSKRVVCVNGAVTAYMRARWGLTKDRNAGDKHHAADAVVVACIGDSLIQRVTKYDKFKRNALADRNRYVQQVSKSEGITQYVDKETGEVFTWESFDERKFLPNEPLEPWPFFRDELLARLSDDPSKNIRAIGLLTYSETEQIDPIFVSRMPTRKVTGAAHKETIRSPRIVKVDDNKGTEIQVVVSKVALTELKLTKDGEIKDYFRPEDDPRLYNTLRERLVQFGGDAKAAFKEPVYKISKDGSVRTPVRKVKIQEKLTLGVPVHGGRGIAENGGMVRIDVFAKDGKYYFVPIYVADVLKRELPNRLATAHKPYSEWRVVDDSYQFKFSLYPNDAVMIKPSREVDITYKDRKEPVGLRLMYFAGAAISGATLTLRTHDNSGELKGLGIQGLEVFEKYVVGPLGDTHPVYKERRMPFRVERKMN
Text: as §3, §4

dAtCas9 [5] = molecular target: T1, dAtCas9; experiment: EMSA; SD 12.2; mutated PAM TATA with 1-2 bulge; conditions: tags: 6xHis; label: 5' Cy5; 2-base bulge at PAM-proximal positions 1-2
Experimental: as §1, §2

dAtCas9-D1089A [6] = molecular target: T2, dAtCas9-D1089A; experiment: EMSA; SD 13.6; PAM TATA; conditions: tags: 6xHis; label: 5' Cy5
Text: as §3, §4

dAtCas9 [7] = molecular target: T1, dAtCas9; experiment: EMSA; SD 4.5; mutated PAM TATA; buffer16, 55C; conditions: tags: 6xHis; label: 5' Cy5
Experimental: as §1, §2

dAtCas9 [8] = molecular target: T1, dAtCas9; experiment: EMSA; SD 7.1; second measurement, mutated PAM TATA; conditions: tags: 6xHis; label: 5' Cy5
Text: as §3, §4

B1: 27m sgRNA-At ; 27m WT PAM (CTAA) mini plasmid, linear (ssRNA ; dsDNA)
RNA: GAAGAUCCUUUGAUCUUUUCUACGGGUCAUAGUUCCCUCACAAGCCUCGAUGUGGUAUGAUGAAAAUCAUACCACAUCAAGGCUUGCGAGGUUGCUAUGAUAAGGCAACAGGCCGCAAAGCACUGACCCGCAUUCCAAUGAAUGCGGGUCAUCUACUUUUU
DNA 1: GAAGATCCTTTGATCTTTTCTACGGGGTCCTAA
DNA 2: TTAGGACCCCGTAGAAAAGATCAAAGGATCTTC
B1: binds (dAtCas9 [1]).

B2: 21a sgRNA-At full length ; 50 bp 21a WT PAM (CTAA) (ssRNA ; dsDNA)
RNA: AAAUGCCUUCGAUUUUACCCCAACGAAUAAGUCAUAGUUCCCUCACAAGCCUCGAUGUGGUAUGAUGAAAAUCAUACCACAUCAAGGCUUGCGAGGUUGCUAUGAUAAGGCAACAGGCCGCAAAGCACUGACCCGCAUUCCAAUGAAUGCGGGUCAUCUACUUUUU
DNA 1: AAATGCCTTCGATTTTACCCCAACGAATAACAGGCTAAAATATGGACCTG
DNA 2: CAGGTCCATATTTTAGCCTGTTATTCGTTGGGGTAAAATCGAAGGCATTT
Work on B2 yielded a Kd (dAtCas9 [2]) of 26.2 nM, a Kd (dAtCas9 [3]) of 22.4 nM and a Kd (dAtCas9-D1089A [4]) of 44.4 nM.

B3: 21a sgRNA-At full length ; 50 bp 21a mutated PAM, 1-2 bulge (ssRNA ; dsDNA)
RNA: AAAUGCCUUCGAUUUUACCCCAACGAAUAAGUCAUAGUUCCCUCACAAGCCUCGAUGUGGUAUGAUGAAAAUCAUACCACAUCAAGGCUUGCGAGGUUGCUAUGAUAAGGCAACAGGCCGCAAAGCACUGACCCGCAUUCCAAUGAAUGCGGGUCAUCUACUUUUU
DNA 1: AAATGCCTTCGATTTTACCCCAACGAATTTGTCATATAAATATGGACCTG
DNA 2: CAGGTCCATATTTATATGACTTATTCGTTGGGGTAAAATCGAAGGCATTT
Work on B3 yielded a Kd (dAtCas9 [5]) of 29.5 nM.

B4: 21a sgRNA-At full length ; 50 bp 21a mutated PAM (TATA), 0 bulge (ssRNA ; dsDNA)
RNA: AAAUGCCUUCGAUUUUACCCCAACGAAUAAGUCAUAGUUCCCUCACAAGCCUCGAUGUGGUAUGAUGAAAAUCAUACCACAUCAAGGCUUGCGAGGUUGCUAUGAUAAGGCAACAGGCCGCAAAGCACUGACCCGCAUUCCAAUGAAUGCGGGUCAUCUACUUUUU
DNA 1: AAATGCCTTCGATTTTACCCCAACGAATAAGTCATATAAATATGGACCTG
DNA 2: CAGGTCCATATTTATATGACTTATTCGTTGGGGTAAAATCGAAGGCATTT
With B4 the Kd (dAtCas9-D1089A [6]) was 27.1 nM, the Kd (dAtCas9 [7]) was 248 nM and the Kd (dAtCas9 [8]) was 109 nM.
